Assay results as given in patent publication US12630600B2 (MEDIMMUNE LIMITED, priority 2022, dated 2026).
Starred links: 1 amine or outer side, 2 acyl side, 3 side chain; linkers in the order of their positions; H or OH if unused. Non-standard residues stand in square brackets, D forms with d. Groups on a side chain read outwards from the residue. Primed or numbered codes have the meaning given here. No end group written: not given here. *: point of attachment. C20 diacid = O=C(O)CCCCCCCCCCCCCCCCCCC(=O)*; C18 diacid = O=C(O)CCCCCCCCCCCCCCCCC(=O)*; γGlu = O=C(O)[C@H](CCC(=O)[*:2])N[*:1]; Palmitoyl = CCCCCCCCCCCCCCCC(=O)*; αMeF = C[C@](N)(Cc1ccccc1)C(=O)O; Myristoyl = CCCCCCCCCCCCCC(=O)*; PEG2′ = polyethylene glycol 2; αMeS = C[C@](N)(CO)C(=O)O; AEEA = NCCOCCOCC(=O)O; Aib = CC(C)(N)C(=O)O

biological target: human glucagon receptor (human, UniProt P47871); test: cell-based or functional assay

| Binder | cAMP production EC50 |
| --- | --- |
| H[Aib]QGTFTSDVSK[αMeF]LDTK([AEEA-AEEA-γGlu-C18 diacid])RAQDFVQWLL[Aib]T-OH (N-terminus assumed; SMILES CC(C)C[C@H](NC(=O)[C@H](Cc1c[nH]c2ccccc12)NC(=O)[C@H](CCC(N)=O)NC(=O)[C@@H](NC(=O)[C@H](Cc1ccccc1)NC(=O)[C@H](CC(=O)O)NC(=O)[C@H](CCC(N)=O)NC(=O)[C@H](C)NC(=O)[C@H](CCCNC(=N)N)NC(=O)[C@H](CCCCNC(=O)COCCOCCNC(=O)COCCOCCNC(=O)CC[C@H](NC(=O)CCCCCCCCCCCCCCCCC(=O)O)C(=O)O)NC(=O)[C@@H](NC(=O)[C@H](CC(=O)O)NC(=O)[C@H](CC(C)C)NC(=O)[C@](C)(Cc1ccccc1)NC(=O)[C@H](CCCCN)NC(=O)[C@H](CO)NC(=O)[C@@H](NC(=O)[C@H](CC(=O)O)NC(=O)[C@H](CO)NC(=O)[C@@H](NC(=O)[C@H](Cc1ccccc1)NC(=O)[C@@H](NC(=O)CNC(=O)[C@H](CCC(N)=O)NC(=O)C(C)(C)NC(=O)[C@@H](N)Cc1c[nH]cn1)[C@@H](C)O)[C@@H](C)O)C(C)C)[C@@H](C)O)C(C)C)C(=O)N[C@@H](CC(C)C)C(=O)NC(C)(C)C(=O)N[C@H](C(=O)O)[C@@H](C)O) [Peptide 35] | 0.335 nM |
| H[Aib]QGTFTSDVSK[αMeF]LDTK([AEEA-AEEA-γGlu-γGlu-C20 diacid])RARDFVQWLLE[Aib]G-NH2 [Peptide 458] | 0.385 nM |
| H[αMeS]QGS[αMeF]TSDVSKILDSK([PEG2′-PEG2′-γGlu-Palmitoyl])AAQD[αMeF]VQ[Aib]IINT-NH2 [Peptide 134] | 0.015 nM |
| H[αMeS]QGS[αMeF]TSDVSKILDSK([PEG2′-PEG2′-γGlu-Myristoyl])AAQD[αMeF]VQ[Aib]IINT-NH2 [Peptide 135] | 0.015 nM |

biological target: human GLP-1 receptor (human, UniProt P43220); test: cell-based or functional assay

| Binder | cAMP production EC50 |
| --- | --- |
| H[Aib]QGTFTSDVSK[αMeF]LDTK([AEEA-AEEA-γGlu-C18 diacid])RAQDFVRWLLE[Aib]G-OH (N-terminus assumed; SMILES CC(C)C[C@H](NC(=O)[C@H](Cc1c[nH]c2ccccc12)NC(=O)[C@H](CCCNC(=N)N)NC(=O)[C@@H](NC(=O)[C@H](Cc1ccccc1)NC(=O)[C@H](CC(=O)O)NC(=O)[C@H](CCC(N)=O)NC(=O)[C@H](C)NC(=O)[C@H](CCCNC(=N)N)NC(=O)[C@H](CCCCNC(=O)COCCOCCNC(=O)COCCOCCNC(=O)CC[C@H](NC(=O)CCCCCCCCCCCCCCCCC(=O)O)C(=O)O)NC(=O)[C@@H](NC(=O)[C@H](CC(=O)O)NC(=O)[C@H](CC(C)C)NC(=O)[C@](C)(Cc1ccccc1)NC(=O)[C@H](CCCCN)NC(=O)[C@H](CO)NC(=O)[C@@H](NC(=O)[C@H](CC(=O)O)NC(=O)[C@H](CO)NC(=O)[C@@H](NC(=O)[C@H](Cc1ccccc1)NC(=O)[C@@H](NC(=O)CNC(=O)[C@H](CCC(N)=O)NC(=O)C(C)(C)NC(=O)[C@@H](N)Cc1c[nH]cn1)[C@@H](C)O)[C@@H](C)O)C(C)C)[C@@H](C)O)C(C)C)C(=O)N[C@@H](CC(C)C)C(=O)N[C@@H](CCC(=O)O)C(=O)NC(C)(C)C(=O)NCC(=O)O) [Peptide 140] | 0.0227 nM |
| H[Aib]QGTFTSDVSK[αMeF]LDSK([AEEA-AEEA-γGlu-γGlu-C18 diacid])RAQDFVQWLL[Aib]T-NH2 (N-terminus assumed; SMILES CC(C)C[C@H](NC(=O)[C@H](Cc1c[nH]c2ccccc12)NC(=O)[C@H](CCC(N)=O)NC(=O)[C@@H](NC(=O)[C@H](Cc1ccccc1)NC(=O)[C@H](CC(=O)O)NC(=O)[C@H](CCC(N)=O)NC(=O)[C@H](C)NC(=O)[C@H](CCCNC(=N)N)NC(=O)[C@H](CCCCNC(=O)COCCOCCNC(=O)COCCOCCNC(=O)CC[C@H](NC(=O)CC[C@H](NC(=O)CCCCCCCCCCCCCCCCC(=O)O)C(=O)O)C(=O)O)NC(=O)[C@H](CO)NC(=O)[C@H](CC(=O)O)NC(=O)[C@H](CC(C)C)NC(=O)[C@](C)(Cc1ccccc1)NC(=O)[C@H](CCCCN)NC(=O)[C@H](CO)NC(=O)[C@@H](NC(=O)[C@H](CC(=O)O)NC(=O)[C@H](CO)NC(=O)[C@@H](NC(=O)[C@H](Cc1ccccc1)NC(=O)[C@@H](NC(=O)CNC(=O)[C@H](CCC(N)=O)NC(=O)C(C)(C)NC(=O)[C@@H](N)Cc1c[nH]cn1)[C@@H](C)O)[C@@H](C)O)C(C)C)C(C)C)C(=O)N[C@@H](CC(C)C)C(=O)NC(C)(C)C(=O)N[C@H](C(N)=O)[C@@H](C)O) [Peptide 463] | 0.274 nM |
| H[Aib]QGTFTSDVSK[αMeF]LDTK([AEEA-AEEA-γGlu-C20 diacid])RARDFVRWLL[Aib]E-NH2 (N-terminus assumed; SMILES CC(C)C[C@H](NC(=O)[C@H](Cc1c[nH]c2ccccc12)NC(=O)[C@H](CCCNC(=N)N)NC(=O)[C@@H](NC(=O)[C@H](Cc1ccccc1)NC(=O)[C@H](CC(=O)O)NC(=O)[C@H](CCCNC(=N)N)NC(=O)[C@H](C)NC(=O)[C@H](CCCNC(=N)N)NC(=O)[C@H](CCCCNC(=O)COCCOCCNC(=O)COCCOCCNC(=O)CC[C@H](NC(=O)CCCCCCCCCCCCCCCCCCC(=O)O)C(=O)O)NC(=O)[C@@H](NC(=O)[C@H](CC(=O)O)NC(=O)[C@H](CC(C)C)NC(=O)[C@](C)(Cc1ccccc1)NC(=O)[C@H](CCCCN)NC(=O)[C@H](CO)NC(=O)[C@@H](NC(=O)[C@H](CC(=O)O)NC(=O)[C@H](CO)NC(=O)[C@@H](NC(=O)[C@H](Cc1ccccc1)NC(=O)[C@@H](NC(=O)CNC(=O)[C@H](CCC(N)=O)NC(=O)C(C)(C)NC(=O)[C@@H](N)Cc1c[nH]cn1)[C@@H](C)O)[C@@H](C)O)C(C)C)[C@@H](C)O)C(C)C)C(=O)N[C@@H](CC(C)C)C(=O)NC(C)(C)C(=O)N[C@@H](CCC(=O)O)C(N)=O) [Peptide 511] | 0.118 nM |
| H[Aib]QGTFTSDVSK[αMeF]LDRK([AEEA-AEEA-γGlu-C18 diacid])RAQDFVRWLLAE-NH2 (N-terminus assumed; SMILES CC(C)C[C@H](NC(=O)[C@H](CC(C)C)NC(=O)[C@H](Cc1c[nH]c2ccccc12)NC(=O)[C@H](CCCNC(=N)N)NC(=O)[C@@H](NC(=O)[C@H](Cc1ccccc1)NC(=O)[C@H](CC(=O)O)NC(=O)[C@H](CCC(N)=O)NC(=O)[C@H](C)NC(=O)[C@H](CCCNC(=N)N)NC(=O)[C@H](CCCCNC(=O)COCCOCCNC(=O)COCCOCCNC(=O)CC[C@H](NC(=O)CCCCCCCCCCCCCCCCC(=O)O)C(=O)O)NC(=O)[C@H](CCCNC(=N)N)NC(=O)[C@H](CC(=O)O)NC(=O)[C@H](CC(C)C)NC(=O)[C@](C)(Cc1ccccc1)NC(=O)[C@H](CCCCN)NC(=O)[C@H](CO)NC(=O)[C@@H](NC(=O)[C@H](CC(=O)O)NC(=O)[C@H](CO)NC(=O)[C@@H](NC(=O)[C@H](Cc1ccccc1)NC(=O)[C@@H](NC(=O)CNC(=O)[C@H](CCC(N)=O)NC(=O)C(C)(C)NC(=O)[C@@H](N)Cc1c[nH]cn1)[C@@H](C)O)[C@@H](C)O)C(C)C)C(C)C)C(=O)N[C@@H](C)C(=O)N[C@@H](CCC(=O)O)C(N)=O) [Peptide 461] | 0.167 nM |
| H[Aib]QGTFTSDVSK[αMeF]LDTK([AEEA-AEEA-γGlu-C18 diacid])RARDFVQWLL[Aib]TE-NH2 (N-terminus assumed; SMILES CC(C)C[C@H](NC(=O)[C@H](Cc1c[nH]c2ccccc12)NC(=O)[C@H](CCC(N)=O)NC(=O)[C@@H](NC(=O)[C@H](Cc1ccccc1)NC(=O)[C@H](CC(=O)O)NC(=O)[C@H](CCCNC(=N)N)NC(=O)[C@H](C)NC(=O)[C@H](CCCNC(=N)N)NC(=O)[C@H](CCCCNC(=O)COCCOCCNC(=O)COCCOCCNC(=O)CC[C@H](NC(=O)CCCCCCCCCCCCCCCCC(=O)O)C(=O)O)NC(=O)[C@@H](NC(=O)[C@H](CC(=O)O)NC(=O)[C@H](CC(C)C)NC(=O)[C@](C)(Cc1ccccc1)NC(=O)[C@H](CCCCN)NC(=O)[C@H](CO)NC(=O)[C@@H](NC(=O)[C@H](CC(=O)O)NC(=O)[C@H](CO)NC(=O)[C@@H](NC(=O)[C@H](Cc1ccccc1)NC(=O)[C@@H](NC(=O)CNC(=O)[C@H](CCC(N)=O)NC(=O)C(C)(C)NC(=O)[C@@H](N)Cc1c[nH]cn1)[C@@H](C)O)[C@@H](C)O)C(C)C)[C@@H](C)O)C(C)C)C(=O)N[C@@H](CC(C)C)C(=O)NC(C)(C)C(=O)N[C@H](C(=O)N[C@@H](CCC(=O)O)C(N)=O)[C@@H](C)O) [Peptide 489] | 0.0228 nM |
| H[Aib]QGTFTSDVSK[αMeF]LDTK([AEEA-AEEA-γGlu-C18 diacid])RARDFVQWLLE[Aib]K-NH2 (N-terminus assumed; SMILES CC(C)C[C@H](NC(=O)[C@H](Cc1c[nH]c2ccccc12)NC(=O)[C@H](CCC(N)=O)NC(=O)[C@@H](NC(=O)[C@H](Cc1ccccc1)NC(=O)[C@H](CC(=O)O)NC(=O)[C@H](CCCNC(=N)N)NC(=O)[C@H](C)NC(=O)[C@H](CCCNC(=N)N)NC(=O)[C@H](CCCCNC(=O)COCCOCCNC(=O)COCCOCCNC(=O)CC[C@H](NC(=O)CCCCCCCCCCCCCCCCC(=O)O)C(=O)O)NC(=O)[C@@H](NC(=O)[C@H](CC(=O)O)NC(=O)[C@H](CC(C)C)NC(=O)[C@](C)(Cc1ccccc1)NC(=O)[C@H](CCCCN)NC(=O)[C@H](CO)NC(=O)[C@@H](NC(=O)[C@H](CC(=O)O)NC(=O)[C@H](CO)NC(=O)[C@@H](NC(=O)[C@H](Cc1ccccc1)NC(=O)[C@@H](NC(=O)CNC(=O)[C@H](CCC(N)=O)NC(=O)C(C)(C)NC(=O)[C@@H](N)Cc1c[nH]cn1)[C@@H](C)O)[C@@H](C)O)C(C)C)[C@@H](C)O)C(C)C)C(=O)N[C@@H](CC(C)C)C(=O)N[C@@H](CCC(=O)O)C(=O)NC(C)(C)C(=O)N[C@@H](CCCCN)C(N)=O) [Peptide 480] | 0.0126 nM |
| H[αMeS]QGS[αMeF]TSDVSKILDSK([PEG2′-PEG2′-γGlu-Palmitoyl])AAQD[αMeF]VQ[Aib]IINT-NH2 [Peptide 134] | 0.000592 nM |
| H[αMeS]QGS[αMeF]TSDVSKILDSK([PEG2′-PEG2′-γGlu-Myristoyl])AAQD[αMeF]VQ[Aib]IINT-NH2 [Peptide 135] | 0.000407 nM |
